Laboratory results taken from US20240261333A1 (published 2024).

Legend:
[1] = target: T1, HNRNPM (human, UniProt P52272 2-730); assay: co-IP with anti-FLAG, C-FLAG B3GNT2, mass spectrometry
T1 construct: also called NP_005959.2 (+1)
T1 sequence (looked up): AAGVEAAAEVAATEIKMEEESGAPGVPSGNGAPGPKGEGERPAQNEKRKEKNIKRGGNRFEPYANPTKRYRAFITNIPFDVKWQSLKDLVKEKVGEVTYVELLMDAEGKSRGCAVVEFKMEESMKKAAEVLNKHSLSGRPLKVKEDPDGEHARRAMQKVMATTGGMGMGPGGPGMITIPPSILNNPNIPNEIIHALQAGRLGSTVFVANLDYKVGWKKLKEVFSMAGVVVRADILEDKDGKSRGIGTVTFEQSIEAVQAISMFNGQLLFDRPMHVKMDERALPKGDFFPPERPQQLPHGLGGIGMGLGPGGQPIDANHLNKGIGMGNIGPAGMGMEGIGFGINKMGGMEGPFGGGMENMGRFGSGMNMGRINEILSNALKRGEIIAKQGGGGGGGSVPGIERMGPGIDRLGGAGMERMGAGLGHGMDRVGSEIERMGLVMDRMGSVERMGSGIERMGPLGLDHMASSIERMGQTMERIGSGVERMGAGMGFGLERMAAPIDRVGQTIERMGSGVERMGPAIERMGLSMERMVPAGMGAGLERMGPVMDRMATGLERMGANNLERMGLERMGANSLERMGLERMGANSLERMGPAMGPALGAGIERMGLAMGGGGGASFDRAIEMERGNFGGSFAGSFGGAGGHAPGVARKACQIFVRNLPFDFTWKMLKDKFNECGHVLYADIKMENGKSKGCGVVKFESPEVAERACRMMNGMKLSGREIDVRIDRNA
Procedure: (§1) Cells were plated in 10-cm cell culture dishes and grown to 60-80% confluency. For each condition, two biological replicates were harvested for co-IP. Cells were washed with PBS and 4 mL of lysis buffer (20 mM HEPES, 1% Triton X-100, 150 mM NaCl, 1 mM EDTA, and 10% glycerol) containing protease inhibitor cocktail was added. Cells were scraped and lysate was incubated at 4° C. under rotary agitation for 1 h. Lysate was centrifuged at 14,000×g for 10 min at 4° C. Supernatant was transferred to a new tube and an aliquot was taken as the input. […] For Western blots, 10 μg/mL Chicken Anti-FLAG (Aves labs ET-DY100) and IgY control (R&D Systems AB-101-C) antibodies were biotinylated (Thermo Fisher Scientific 90407) and added to the respective conditions. Lysates with antibodies were incubated at 4° C. under rotary agitation overnight. For each mL of lysate, 50 μL of Pierce Protein A/G Magnetic Beads (Mass spectrometry; Thermo Fisher Scientific 88803) or Pierce Streptavidin Magnetic Beads (Western blot; Thermo Fisher Scientific 88817) was washed twice with lysis buffer. Lysates with antibodies were added to the beads and incubated at 4° C. under rotary agitation for 4 h. Beads were washed with lysis buffer 3 times and resuspended in lysis buffer for storage.
(§2) Magnetic beads were resuspended in 100 mM Tris pH 7.8, reduced, alkylated and digested with trypsin at 37° ° C. overnight. This solution was subjected to solid phase extraction to concentrate the peptides and remove unwanted reagents followed by injection onto a Shimadzu HPLC with fraction collector. Eight fractions were collected and after concentration were injected on a Waters NanoAcquity HPLC equipped with a self-packed Aeris 3 μm C18 analytical column 0.075 mm by 20 cm, (Phenomenex). Peptides were eluted using standard reverse-phase gradients. The effluent from the column was analyzed using a Thermo Orbitrap Elite mass spectrometer (nanospray configuration) operated in a data dependent manner for 54 minutes. The resulting fragmentation spectra were correlated against the known database using Proteome Discover 1.4 (Thermo Fisher Scientific).

[2] = target: T2, RPN1 (UniProt P04843 24-607); assay: co-IP with anti-FLAG, mass spectrometry; N-FLAG B3GNT2
T2 construct: Endogenous protein found in the co-IP by mass spectrometry; also called NP_002941.1
T2 sequence (looked up): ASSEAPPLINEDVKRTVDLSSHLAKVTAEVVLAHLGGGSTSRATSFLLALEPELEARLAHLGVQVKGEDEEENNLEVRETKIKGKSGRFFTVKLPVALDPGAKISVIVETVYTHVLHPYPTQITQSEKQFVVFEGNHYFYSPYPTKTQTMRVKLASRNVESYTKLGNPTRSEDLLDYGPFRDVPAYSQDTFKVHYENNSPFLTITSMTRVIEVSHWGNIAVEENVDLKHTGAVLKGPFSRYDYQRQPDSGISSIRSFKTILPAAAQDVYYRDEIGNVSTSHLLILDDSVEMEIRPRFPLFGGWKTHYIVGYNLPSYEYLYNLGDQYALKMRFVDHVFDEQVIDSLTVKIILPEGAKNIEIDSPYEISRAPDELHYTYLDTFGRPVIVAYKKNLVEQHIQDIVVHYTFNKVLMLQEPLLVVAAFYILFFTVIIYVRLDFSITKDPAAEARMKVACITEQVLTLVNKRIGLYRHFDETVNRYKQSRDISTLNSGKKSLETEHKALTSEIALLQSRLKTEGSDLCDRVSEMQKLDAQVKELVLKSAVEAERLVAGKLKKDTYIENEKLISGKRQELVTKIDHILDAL
Procedure: as §1, §2

[3] = target: T3, LTF (UniProt P02788 20-710, limits assumed); assay: as above
T3 construct: Protein found in the co-IP by mass spectrometry; also called NP_001308051.1
Procedure: as §1, §2

[4] = target: T4, RPLP2 (UniProt P05387 1-115); assay: as above
T4 construct: Endogenous protein found in the co-IP by mass spectrometry; also called NP_000995.1
Procedure: as §1, §2

[5] = target: SLIRP (UniProt Q9GZT3 1-109); assay: as above
Procedure: as §1, §2

[6] = target: RPS11 (UniProt P62280 2-158); assay: as above
Procedure: as §1, §2

[7] = target: T5, CTSD (UniProt P07339 65-412, limits assumed); assay: as above
T5 construct: Endogenous protein found in the co-IP by mass spectrometry; also called NP_001900.1
Procedure: as §1, §2

[8] = target: RPL10A (UniProt P62906 2-217); assay: as above
Procedure: as §1, §2

[9] = target: RPL21 (UniProt P46778 2-160); assay: as above
Procedure: as §1, §2

T4 sequence (P05387 whole entry): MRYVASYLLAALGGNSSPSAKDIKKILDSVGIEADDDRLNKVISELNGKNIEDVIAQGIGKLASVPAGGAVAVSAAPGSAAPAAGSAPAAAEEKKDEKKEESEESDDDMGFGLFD
T3 sequence (P02788 20-710 limits assumed): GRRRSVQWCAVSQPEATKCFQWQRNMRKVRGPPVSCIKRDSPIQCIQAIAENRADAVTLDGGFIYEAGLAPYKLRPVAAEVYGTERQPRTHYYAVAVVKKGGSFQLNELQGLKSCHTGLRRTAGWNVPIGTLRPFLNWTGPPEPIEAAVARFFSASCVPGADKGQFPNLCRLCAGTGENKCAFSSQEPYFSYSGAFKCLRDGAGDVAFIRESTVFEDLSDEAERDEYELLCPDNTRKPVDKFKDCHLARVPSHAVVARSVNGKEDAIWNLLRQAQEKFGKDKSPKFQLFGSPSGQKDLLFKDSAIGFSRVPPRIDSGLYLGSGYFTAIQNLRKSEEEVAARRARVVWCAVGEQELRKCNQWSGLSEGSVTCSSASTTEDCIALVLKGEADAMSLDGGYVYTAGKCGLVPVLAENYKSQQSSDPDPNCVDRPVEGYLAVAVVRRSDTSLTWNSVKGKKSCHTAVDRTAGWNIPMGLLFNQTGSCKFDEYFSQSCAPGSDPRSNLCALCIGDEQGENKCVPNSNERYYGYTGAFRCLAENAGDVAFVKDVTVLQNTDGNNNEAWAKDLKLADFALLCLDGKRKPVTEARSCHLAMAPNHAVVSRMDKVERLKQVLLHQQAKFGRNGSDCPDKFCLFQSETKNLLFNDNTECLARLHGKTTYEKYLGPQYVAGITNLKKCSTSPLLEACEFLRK
T5 sequence (P07339 65-412 limits assumed): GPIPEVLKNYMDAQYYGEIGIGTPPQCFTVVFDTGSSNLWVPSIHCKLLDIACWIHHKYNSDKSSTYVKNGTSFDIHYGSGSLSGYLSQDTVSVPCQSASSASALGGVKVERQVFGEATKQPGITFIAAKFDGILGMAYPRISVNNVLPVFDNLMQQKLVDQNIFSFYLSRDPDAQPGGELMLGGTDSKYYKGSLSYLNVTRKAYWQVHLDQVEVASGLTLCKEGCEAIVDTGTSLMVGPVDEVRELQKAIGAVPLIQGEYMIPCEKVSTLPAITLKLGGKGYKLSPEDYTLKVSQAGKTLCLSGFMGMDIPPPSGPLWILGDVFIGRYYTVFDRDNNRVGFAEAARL

B1: C-terminal FLAG tagged B3GNT2 (enzyme, human, UniProt Q9NY97 1-397, looked up)
chain: MSVGRRRIKLLGILMMANVFIYFIMEVSKSSSQEKNGKGEVIIPKEKFWKISTPPEAYWNREQEKLNRQYNPILSMLTNQTGEAGRLSNISHLNYCEPDLRVTSVVTGFNNLPDRFKDFLLYLRCRNYSLLIDQPDKCAKKPFLLLAIKSLTPHFARRQAIRESWGQESNAGNQTVVRVFLLGQTPPEDNHPDLSDMLKFESEKHQDILMWNYRDTFFNLSLKEVLFLRWVSTSCPDTEFVFKGDDDVFVNTHHILNYLNSLSKTKAKDLFIGDVIHNAGPHRDKKLKYYIPEVVYSGLYPPYAGGGGFLYSGHLALRLYHITDQVHLYPIDDVYTGMCLQKLGLVPEKHKGFRTFDIEEKNKNNICSYVDLMLVHSRKPQEMIDIWSQLQSAHLKC
notes: FLAG-tagged ORF overexpressed in cells; pulled down from lysate with mouse anti-FLAG; also called C-FLAG B3GNT2; C-term flag; not shown: C-terminal FLAG tag
In the case of B1, the “co-IP mass spectrometry count” value [1] is reported as 8.

B2: N-terminal FLAG tagged B3GNT2 (enzyme, human, UniProt Q9NY97 1-397, looked up)
chain: B1 chain
notes: FLAG-tagged ORF overexpressed in cells; bait of the anti-FLAG co-IP; also called N-FLAG B3GNT2; N-term FLAG; not shown: FLAG tag at the N-terminus
In the case of B2, the “co-IP mass spectrometry count” value [2] is reported as 0, the “co-IP mass spectrometry count” value [3] is reported as 8 and the “co-IP mass spectrometry count” value [4] is reported as 6. The “co-IP mass spectrometry count” value [5] was 0, the “co-IP mass spectrometry count” value [6] was 13 and the “co-IP mass spectrometry count” value [7] was 3. For the same binder, the “co-IP mass spectrometry count” value [8] was 6 and the “co-IP mass spectrometry count” value [9] was 8.
